Values of other authors in patent publication US20110300070A1, “BIOMOLECULE COMPLEXES AS CONTRAST AGENTS IN POSITRON EMISSION TOMOGRAPHY (PET) BASED METHODS FOR THE ASSESSMENT OF ORGAN FUNCTION” (priority 2008, published 2011).

System: proximal tubular cells
Details: in vivo

cytochrome C: heme protein, about 100 amino acids, about 12 kD
time window where the filtered amount of the tracer is still quantitatively retained in the proximal tubular cells: about 5 minutes

B1: cystatin C: cysteine protease inhibitor, about 120 amino acids, about 13 kD (protein, UniProt P01034 27-146, looked up)
Cystatin-C: SSPGKPPRLVGGPMDASVEEEGVRRALDFAVGEYNKASNDMYHSRALQVVRARKQIVAGVNYFLDVELGRTTCTKTQPNLDNCPFHDQPHLKRKAFCSFQIYAVPWQGTMTLSKSTCQDA
optimal clearance period: less than 5 minutes | time window where the filtered amount of the tracer is still quantitatively retained in the proximal tubular cells: about 5 minutes
